The source of these data is patent US20250262210A1 (TRUSTEES OF COLUMBIA UNIVERSITY IN THE CITY OF NEW YORK, published 2025).

One assay addresses T1, LZTR1-FLAG (human, UniProt Q8N653 1-840).
T1 construct: Expressed in HEK 293T, HeLa or U87 cells; used as cell lysate; also called LZTR1 wild type-FLAG; LZTR1 WT; not shown: FLAG tag at the C-terminus
T1 sequence (looked up): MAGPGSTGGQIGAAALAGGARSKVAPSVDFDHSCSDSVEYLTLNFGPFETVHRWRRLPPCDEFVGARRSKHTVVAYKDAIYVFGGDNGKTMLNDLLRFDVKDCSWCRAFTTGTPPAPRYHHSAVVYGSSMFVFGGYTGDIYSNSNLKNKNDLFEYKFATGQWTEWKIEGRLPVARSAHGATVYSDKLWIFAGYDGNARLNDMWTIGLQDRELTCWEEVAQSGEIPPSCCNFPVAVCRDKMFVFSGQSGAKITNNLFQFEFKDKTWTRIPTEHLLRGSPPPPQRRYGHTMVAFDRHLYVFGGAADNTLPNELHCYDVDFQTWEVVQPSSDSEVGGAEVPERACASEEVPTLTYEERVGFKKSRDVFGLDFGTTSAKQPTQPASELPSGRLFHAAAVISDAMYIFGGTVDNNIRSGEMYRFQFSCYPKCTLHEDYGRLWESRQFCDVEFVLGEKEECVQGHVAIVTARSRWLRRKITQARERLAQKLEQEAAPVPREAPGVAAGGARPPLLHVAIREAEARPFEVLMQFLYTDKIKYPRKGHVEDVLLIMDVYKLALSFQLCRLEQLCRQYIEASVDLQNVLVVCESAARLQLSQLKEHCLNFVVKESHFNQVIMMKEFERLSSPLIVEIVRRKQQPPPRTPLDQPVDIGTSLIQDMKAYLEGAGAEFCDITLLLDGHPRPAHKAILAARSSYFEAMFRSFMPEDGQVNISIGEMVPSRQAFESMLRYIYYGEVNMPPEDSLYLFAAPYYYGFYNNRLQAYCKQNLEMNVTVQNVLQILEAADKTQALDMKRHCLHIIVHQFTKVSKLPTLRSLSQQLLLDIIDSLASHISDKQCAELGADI
Briefly: IP/MS, LZTR1 wild type-FLAG, U87. The method in brief:
(§1)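 Read-out: spectral counts from LC-MS/MS (Orbitrap Fusion) after MaxQuant identification. Variable modifications were Met oxidation, protein N-terminal acetylation and N/Q deamidation.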

The next assay addresses T2, LZTR1 R810W-FLAG (human, UniProt Q8N653 1-840).
T2 construct: Stably expressed in U87 cells by lentivirus; also called LZTR1-FLAG-R810W; LZTR1 RW; not shown: FLAG tag
T2 sequence (looked up): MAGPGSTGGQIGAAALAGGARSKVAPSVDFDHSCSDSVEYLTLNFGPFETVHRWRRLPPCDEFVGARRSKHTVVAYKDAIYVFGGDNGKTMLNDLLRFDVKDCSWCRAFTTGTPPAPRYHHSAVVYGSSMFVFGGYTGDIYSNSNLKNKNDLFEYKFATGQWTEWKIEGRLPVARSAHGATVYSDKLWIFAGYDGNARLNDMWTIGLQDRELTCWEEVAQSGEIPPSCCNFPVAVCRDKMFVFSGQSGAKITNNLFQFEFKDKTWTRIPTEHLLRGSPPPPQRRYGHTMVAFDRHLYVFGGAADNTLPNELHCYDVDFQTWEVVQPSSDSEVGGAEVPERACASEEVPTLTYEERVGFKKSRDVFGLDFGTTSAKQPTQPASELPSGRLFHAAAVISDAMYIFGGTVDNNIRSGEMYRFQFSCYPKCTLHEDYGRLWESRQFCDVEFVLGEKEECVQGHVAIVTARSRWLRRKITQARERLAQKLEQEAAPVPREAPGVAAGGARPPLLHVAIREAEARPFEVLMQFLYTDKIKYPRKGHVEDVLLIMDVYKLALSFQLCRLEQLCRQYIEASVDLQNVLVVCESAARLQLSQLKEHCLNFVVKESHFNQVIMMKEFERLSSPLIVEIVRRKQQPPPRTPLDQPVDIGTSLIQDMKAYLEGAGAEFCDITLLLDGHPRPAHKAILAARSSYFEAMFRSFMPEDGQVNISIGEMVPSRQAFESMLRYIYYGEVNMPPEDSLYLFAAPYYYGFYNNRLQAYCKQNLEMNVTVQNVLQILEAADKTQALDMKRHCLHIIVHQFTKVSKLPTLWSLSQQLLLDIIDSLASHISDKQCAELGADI
Briefly: IP/MS, LZTR1 R810W-FLAG, U87. The essentials: as §1

B1: GMPPA (other, human, UniProt Q96IJ6 1-420, looked up)
chain: MLKAVILIGGPQKGTRFRPLSFEVPKPLFPVAGVPMIQHHIEACAQVPGMQEILLIGFYQPDEPLTQFLEAAQQEFNLPVRYLQEFAPLGTGGGLYHFRDQILAGSPEAFFVLNADVCSDFPLSAMLEAHRRQRHPFLLLGTTANRTQSLNYGCIVENPQTHEVLHYVEKPSTFISDIINCGIYLFSPEALKPLRDVFQRNQQDGQLEDSPGLWPGAGTIRLEQDVFSALAGQGQIYVHLTDGIWSQIKSAGSALYASRLYLSRYQDTHPERLAKHTPGGPWIRGNVYIHPTAKVAPSAVLGPNVSIGKGVTVGEGVRLRESIVLHGATLQEHTCVLHSIVGWGSTVGRWARVEGTPSDPNPNDPRARMDSESLFKDGKLLPAITILGCRVRIPAEVLILNSIVLPHKELSRSFTNQIIL
Turning to B1, the binding result in the assay with LZTR1-FLAG and with LZTR1 R810W-FLAG was “binds” throughout.

B2: GPD2 (other, human, UniProt P43304 43-727, looked up)
chain: ADCISEPVNREPPSREAQLLTLQNTSEFDILVIGGGATGSGCALDAVTRGLKTALVERDDFSSGTSSRSTKLIHGGVRYLQKAIMKLDIEQYRMVKEALHERANLLEIAPHLSAPLPIMLPVYKWWQLPYYWVGIKLYDLVAGSNCLKSSYVLSKSRALEHFPMLQKDKLVGAIVYYDGQHNDARMNLAIALTAARYGAATANYMEVVSLLKKTDPQTGKVRVSGARCKDVLTGQEFDVRAKCVINATGPFTDSVRKMDDKDAAAICQPSAGVHIVMPGYYSPESMGLLDPATSDGRVIFFLPWQKMTIAGTTDTPTDVTHHPIPSEEDINFILNEVRNYLSCDVEVRRGDVLAAWSGIRPLVTDPKSADTQSISRNHVVDISESGLITIAGGKWTTYRSMAEDTINAAVKTHNLKAGPSRTVGLFLQGGKDWSPTLYIRLVQDYGLESEVAQHLAATYGDKAFEVAKMASVTGKRWPIVGVRLVSEFPYIEAEVKYGIKEYACTAVDMISRRTRLAFLNVQAAEEALPRIVELMGRELNWDDYKKQEQLETARKFLYYEMGYKSRSEQLTDRSEISLLPSDIDRYKKRFHKFDADQKGFITIVDVQRVLESINVQMDENTLHEILNEVDLNKNGQVELNEFLQLMSAIQKGRVSGSRLAILMKTAEENLDRRVPIPVDRSCGGL
Regarding B2, the binding result with LZTR1-FLAG and with LZTR1 R810W-FLAG was “binds” in each case.

B3: GUCY1B1 (other, human, UniProt Q02153 1-619, looked up)
chain: MYGFVNHALELLVIRNYGPEVWEDIKKEAQLDEEGQFLVRIIYDDSKTYDLVAAASKVLNLNAGEILQMFGKMFFVFCQESGYDTILRVLGSNVREFLQNLDALHDHLATIYPGMRAPSFRCTDAEKGKGLILHYYSEREGLQDIVIGIIKTVAQQIHGTEIDMKVIQQRNEECDHTQFLIEEKESKEEDFYEDLDRFEENGTQESRISPYTFCKAFPFHIIFDRDLVVTQCGNAIYRVLPQLQPGNCSLLSVFSLVRPHIDISFHGILSHINTVFVLRSKEGLLDVEKLECEDELTGTEISCLRLKGQMIYLPEADSILFLCSPSVMNLDDLTRRGLYLSDIPLHDATRDLVLLGEQFREEYKLTQELEILTDRLQLTLRALEDEKKKTDTLLYSVLPPSVANELRHKRPVPAKRYDNVTILFSGIVGFNAFCSKHASGEGAMKIVNLLNDLYTRFDTLTDSRKNPFVYKVETVGDKYMTVSGLPEPCIHHARSICHLALDMMEIAGQVQVDGESVQITIGIHTGEVVTGVIGQRMPRYCLFGNTVNLTSRTETTGEKGKINVSEYTYRCLMSPENSDPQFHLEHRGPVSMKGKKEPMQVWFLSRKNTGTEETKQDDD
For the molecule B3, the binding result with LZTR1-FLAG and with LZTR1 R810W-FLAG was “binds” throughout.

B4: IKBKB (other, human, UniProt O14920 1-756, looked up)
chain: MSWSPSLTTQTCGAWEMKERLGTGGFGNVIRWHNQETGEQIAIKQCRQELSPRNRERWCLEIQIMRRLTHPNVVAARDVPEGMQNLAPNDLPLLAMEYCQGGDLRKYLNQFENCCGLREGAILTLLSDIASALRYLHENRIIHRDLKPENIVLQQGEQRLIHKIIDLGYAKELDQGSLCTSFVGTLQYLAPELLEQQKYTVTVDYWSFGTLAFECITGFRPFLPNWQPVQWHSKVRQKSEVDIVVSEDLNGTVKFSSSLPYPNNLNSVLAERLEKWLQLMLMWHPRQRGTDPTYGPNGCFKALDDILNLKLVHILNMVTGTIHTYPVTEDESLQSLKARIQQDTGIPEEDQELLQEAGLALIPDKPATQCISDGKLNEGHTLDMDLVFLFDNSKITYETQISPRPQPESVSCILQEPKRNLAFFQLRKVWGQVWHSIQTLKEDCNRLQQGQRAAMMNLLRNNSCLSKMKNSMASMSQQLKAKLDFFKTSIQIDLEKYSEQTEFGITSDKLLLAWREMEQAVELCGRENEVKLLVERMMALQTDIVDLQRSPMGRKQGGTLDDLEEQARELYRRLREKPRDQRTEGDSQEMVRLLLQAIQSFEKKVRVIYTQLSKTVVCKQKALELLPKVEEVVSLMNEDEKTVVRLQEKRQKELWNLLKIACSKVRGPVSGSPDSMNASRLSQPGQLMSQPSTASNSLPEPAKKSEELVAEAHNLCTLLENAIQDTVREQDQSFTALDWSWLQTEEEEHSCLEQAS
On to B4, for which the binding result in the assay with LZTR1-FLAG and with LZTR1 R810W-FLAG was “binds” throughout.

B5: IFT57 (other, human, UniProt Q9NWB7 1-429, looked up)
chain: MTAALAVVTTSGLEDGVPRSRGEGTGEVVLERGPGAAYHMFVVMEDLVEKLKLLRYEEEFLRKSNLKAPSRHYFALPTNPGEQFYMFCTLAAWLINKAGRPFEQPQEYDDPNATISNILSELRSFGRTADFPPSKLKSGYGEHVCYVLDCFAEEALKYIGFTWKRPIYPVEELEEESVAEDDAELTLNKVDEEFVEEETDNEENFIDLNVLKAQTYHLDMNETAKQEDILESTTDAAEWSLEVERVLPQLKVTIRTDNKDWRIHVDQMHQHRSGIESALKETKGFLDKLHNEITRTLEKISSREKYINNQLENLVQEYRAAQAQLSEAKERYQQGNGGVTERTRLLSEVMEELEKVKQEMEEKGSSMTDGAPLVKIKQSLTKLKQETVEMDIRIGIVEHTLLQSKLKEKSNMTRNMHATVIPEPATGFY
Take B5: the binding result with LZTR1-FLAG and in the assay with LZTR1 R810W-FLAG was “binds” in each case.

B6: IFI16 (other, human, UniProt Q16666 1-785, looked up)
chain: MGKKYKNIVLLKGLEVINDYHFRMVKSLLSNDLKLNLKMREEYDKIQIADLMEEKFRGDAGLGKLIKIFEDIPTLEDLAETLKKEKLKVKGPALSRKRKKEVDATSPAPSTSSTVKTEGAEATPGAQKRKKSTKEKAGPKGSKVSEEQTQPPSPAGAGMSTAMGRSPSPKTSLSAPPNSSSTENPKTVAKCQVTPRRNVLQKRPVIVKVLSTTKPFEYETPEMEKKIMFHATVATQTQFFHVKVLNTSLKEKFNGKKIIIISDYLEYDSLLEVNEESTVSEAGPNQTFEVPNKIINRAKETLKIDILHKQASGNIVYGVFMLHKKTVNQKTTIYEIQDDRGKMDVVGTGQCHNIPCEEGDKLQLFCFRLRKKNQMSKLISEMHSFIQIKKKTNPRNNDPKSMKLPQEQRQLPYPSEASTTFPESHLRTPQMPPTTPSSSFFTKKSEDTISKMNDFMRMQILKEGSHFPGPFMTSIGPAESHPHTPQMPPSTPSSSFLTTKSEDTISKMNDFMRMQILKEGSHFPGPFMTSIGPAESHPHTPQMPPSTPSSSFLTTLKPRLKTEPEEVSIEDSAQSDLKEVMVLNATESFVYEPKEQKKMFHATVATENEVFRVKVFNIDLKEKFTPKKIIAIANYVCRNGFLEVYPFTLVADVNADRNMEIPKGLIRSASVTPKINQLCSQTKGSFVNGVFEVHKKNVRGEFTYYEIQDNTGKMEVVVHGRLTTINCEEGDKLKLTCFELAPKSGNTGELRSVIHSHIKVIKTRKNKKDILNPDSSMETSPDFFF
On to B6, for which the binding result with LZTR1-FLAG and with LZTR1 R810W-FLAG was “binds” in each case.
